As a reminder, the Kd is the concentration at which binding is half-saturated.

These results are taken from article PMC8902820.

In assay [1] the target is FcγRIIA H131 (SPR assay) (UniProt P12318). Nature of the assay: SPR; FcγRIIA, FcγRIIB, FcγRIIIA; KD determined by the analyte concentration at which half of the ligands are occupied at equilibrium.
In assay [2] the target is FcγRIIB (SPR assay) (UniProt P31994). Described as above.
The target in assay [3] is FcγRI (SPR assay) (UniProt P12314). Nature of the assay: SPR; FcγRI; KD calculated from the ratio of the kinetic constants (KD = koff/kon).
Sequence of UniProt P12314 (P12314 16-374): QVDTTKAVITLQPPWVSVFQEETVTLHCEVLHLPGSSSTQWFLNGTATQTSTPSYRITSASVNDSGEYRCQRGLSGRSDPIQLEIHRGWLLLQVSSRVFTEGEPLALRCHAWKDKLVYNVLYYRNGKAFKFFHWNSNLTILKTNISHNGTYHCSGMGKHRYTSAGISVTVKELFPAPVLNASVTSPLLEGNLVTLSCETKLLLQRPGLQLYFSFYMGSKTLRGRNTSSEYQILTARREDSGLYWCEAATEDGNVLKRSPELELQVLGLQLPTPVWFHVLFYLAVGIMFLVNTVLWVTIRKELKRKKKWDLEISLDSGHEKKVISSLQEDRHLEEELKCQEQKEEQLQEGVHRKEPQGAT
The target in assay [4] is FcγRIIIA V158. Nature of the assay: SPR; FcγRIIA, FcγRIIB, FcγRIIIA; KD determined by the analyte concentration at which half of the ligands are occupied at equilibrium. (SPR reads the build-up and loss of mass on a sensor chip optically.)
For assay [5], the target named is FcγRIIA R131 (SPR assay). Described as above.
Assay [6] has as its target FcγRIIIA F158 (UniProt P08637). Described as above.
Sequence of UniProt P08637 (P08637 17-254): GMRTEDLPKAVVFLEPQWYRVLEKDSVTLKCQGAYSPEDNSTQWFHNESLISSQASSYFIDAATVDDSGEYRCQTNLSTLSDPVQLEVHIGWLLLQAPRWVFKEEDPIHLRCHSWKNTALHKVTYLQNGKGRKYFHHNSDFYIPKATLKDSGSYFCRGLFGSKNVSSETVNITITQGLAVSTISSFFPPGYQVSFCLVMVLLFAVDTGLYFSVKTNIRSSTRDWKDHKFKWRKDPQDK

Sequence of UniProt P12318 (P12318 34-317): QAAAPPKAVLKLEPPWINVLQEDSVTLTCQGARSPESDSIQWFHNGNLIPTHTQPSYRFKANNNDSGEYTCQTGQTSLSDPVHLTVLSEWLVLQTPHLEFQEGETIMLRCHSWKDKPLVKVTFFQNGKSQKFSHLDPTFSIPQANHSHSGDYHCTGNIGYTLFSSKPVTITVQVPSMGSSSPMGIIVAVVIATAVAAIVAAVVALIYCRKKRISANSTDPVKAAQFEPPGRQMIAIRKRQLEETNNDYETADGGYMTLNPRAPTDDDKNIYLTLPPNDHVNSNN
Sequence of UniProt P31994 (P31994 43-310): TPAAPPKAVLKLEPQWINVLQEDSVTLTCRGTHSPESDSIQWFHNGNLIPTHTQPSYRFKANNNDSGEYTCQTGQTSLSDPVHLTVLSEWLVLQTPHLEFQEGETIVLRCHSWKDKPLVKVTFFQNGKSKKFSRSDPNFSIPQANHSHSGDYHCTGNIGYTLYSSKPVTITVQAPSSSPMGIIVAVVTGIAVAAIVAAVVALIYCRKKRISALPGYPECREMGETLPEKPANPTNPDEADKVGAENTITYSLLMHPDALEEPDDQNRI

Turning to “Ociperlimab (BGB-A1217), humanized IgG1 anti-human TIGIT antibody with wild-type IgG1 Fc”, the Kd was 965 nM in assay [1] and 2840 nM in assay [2].

B1: Ociperlimab (BGB-A1217), humanized IgG1 anti-human TIGIT antibody with wild-type IgG1 Fc (antibody, V domains shown)
VH: EVQLVESGGGLVQPGGSLRLSCAASGFTFSDYYMYWVRQAPGKGLEWVAYITKGGGSTYYPDSVKGRFTISRDNAKNTLYLQMNSLRAEDTAVYYCARQTNYDFTMDYWGQGTLVTVSS
VL: EIVMTQSPATLSVSPGERATLSCKASQDVGTSVAWYQQKPGQAPRLLIYWASARHTGIPARFSGSGSGTEFTLTISSLQSEDFAVYYCQQYSSYPLTFGGGTKVEIK
With B1, the Kd in assay [3] was 0.0406 nM; in assay [4], 555 nM; in assay [5] it was 1020 nM; in assay [6] it was 2180 nM.
